# Experimental data published in patent US20150290319A1 (EMERGENT BIOSOLUTIONS CANADA, published 2015).
# B1: huCAN46G24 (antibody, V domains shown)
# VH: EVQLVQSGAEVKKPGESVKVSCKASGYSFTGYYIHWVKQAPGQGLEWVGRIFPYNGAASYNQNFKGKATLTVDKSSSTAYMELSSLRSEDTAVYFCARWLRVYFDYWGQGTTVTVSS
# VL: EIVLTQSPSSLSTSVGDRVTISCSASSSVTYMHWYQQKPGKAPKLWIYETSKLASGVPGRFSGSGSGNSYTFTISSLQPEDIATYYCFQGSGYPFTFGQGTKVEIK
# notes: also called HuCAN46G24-2-3
# Legend:
# [1] = target: recombinant toxin B fragment 1 (Clostridium difficile, UniProt P18177 1-546); assay: Western blot, 3 ug protein per lane, mAb from CHOK1SV at 0.038 ug/mL [Cont.]
# Chain of recombinant toxin B fragment 1 (P18177 1-546 limits assumed): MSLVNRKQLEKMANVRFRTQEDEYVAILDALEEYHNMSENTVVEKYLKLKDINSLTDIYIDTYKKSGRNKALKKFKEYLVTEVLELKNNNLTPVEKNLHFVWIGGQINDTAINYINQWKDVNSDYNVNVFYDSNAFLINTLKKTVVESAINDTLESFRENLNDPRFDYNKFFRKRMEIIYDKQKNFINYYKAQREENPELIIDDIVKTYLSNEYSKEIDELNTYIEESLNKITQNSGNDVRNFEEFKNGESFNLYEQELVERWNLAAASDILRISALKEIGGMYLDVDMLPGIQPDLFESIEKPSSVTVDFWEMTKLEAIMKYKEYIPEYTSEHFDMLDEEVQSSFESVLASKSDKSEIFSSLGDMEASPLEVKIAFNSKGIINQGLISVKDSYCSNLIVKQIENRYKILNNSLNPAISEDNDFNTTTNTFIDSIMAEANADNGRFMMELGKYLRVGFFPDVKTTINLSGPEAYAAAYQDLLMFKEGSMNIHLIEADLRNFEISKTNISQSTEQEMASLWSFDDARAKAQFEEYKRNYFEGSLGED
# [2] = target: recombinant toxin B fragment 4 (Clostridium difficile, UniProt P18177 1777-2366); assay: as above
# Chain of recombinant toxin B fragment 4 (P18177 1777-2366 limits assumed): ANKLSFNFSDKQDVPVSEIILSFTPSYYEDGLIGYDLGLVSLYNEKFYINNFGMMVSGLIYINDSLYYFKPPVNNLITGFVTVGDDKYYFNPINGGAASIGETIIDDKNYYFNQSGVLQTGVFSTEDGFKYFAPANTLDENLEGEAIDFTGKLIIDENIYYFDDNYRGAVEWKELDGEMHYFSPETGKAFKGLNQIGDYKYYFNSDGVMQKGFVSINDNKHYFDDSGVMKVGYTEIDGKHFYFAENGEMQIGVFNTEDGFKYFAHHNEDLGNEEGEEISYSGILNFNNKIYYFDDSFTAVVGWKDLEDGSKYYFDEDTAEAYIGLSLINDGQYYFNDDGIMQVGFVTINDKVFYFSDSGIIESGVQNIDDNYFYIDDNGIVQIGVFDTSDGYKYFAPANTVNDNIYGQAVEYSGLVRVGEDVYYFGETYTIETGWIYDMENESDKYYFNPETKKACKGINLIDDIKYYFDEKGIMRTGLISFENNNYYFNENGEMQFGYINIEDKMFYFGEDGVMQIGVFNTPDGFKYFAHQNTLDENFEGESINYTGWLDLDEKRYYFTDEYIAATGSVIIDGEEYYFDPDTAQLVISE
binder,measurement,setting,value
B1,binding result,[1],no binding (tested: 0.038 ug/mL)
same,binding result,[2],binds
